Like-named read-outs stand apart in the source and are kept apart here.
Key:
[1] = molecular target: T1, Mutated SARS-CoV-2 (COVID-19) S protein (RBD) F490L (SARS-CoV-2, UniProt P0DTC2 319-537); experiment: BLI, biotinylated SR4 on streptavidin sensor, spike RBD in solution, 1:1 fit
[2] = molecular target: T2, Mutated SARS-CoV-2 (COVID-19) S protein (RBD) N501Y (SARS-CoV-2, UniProt P0DTC2 319-537); experiment: as above
T2 construct: also called N501Y: UK strain

[3] = molecular target: T3, Mutated SARS-CoV-2 (COVID-19) S protein (RBD), South African strain (K417N, E484K, N501Y) (SARS-CoV-2, UniProt P0DTC2 319-537); experiment: as above
T3 construct: also called K417N, E484K, N501Y: South Africa strain; B.1.351 lineage

[4] = molecular target: T4, Mutated SARS-CoV-2 (COVID-19) S protein (RBD) N439K (SARS-CoV-2, UniProt P0DTC2 319-537); experiment: as above
[5] = molecular target: T5, Mutated SARS-CoV-2 (COVID-19) S protein (RBD) E484K (SARS-CoV-2, UniProt P0DTC2 319-537); experiment: as above
[6] = molecular target: T6, Spike RBD, WT (Example 7, Tables 4 and 2) (SARS-CoV-2, UniProt P0DTC2 319-541); experiment: as above
T6 construct: also called wildtype spike protein; Spike protein RBD

[7] = molecular target: T3, Mutated SARS-CoV-2 (COVID-19) S protein …
[8] = molecular target: T1, Mutated SARS-CoV-2 (COVID-19) S protein …; experiment: BLI; KD column of Table 2 repeats Table 4
[9] = molecular target: T2, Mutated SARS-CoV-2 (COVID-19) S protein …; experiment: BLI; KD column of Table 2 repeats Table 4
[10] = molecular target: T3, Mutated SARS-CoV-2 (COVID-19) S protein …; experiment: BLI; KD column of Table 2 repeats Table 4
[11] = molecular target: T4, Mutated SARS-CoV-2 (COVID-19) S protein …; experiment: BLI; KD column of Table 2 repeats Table 4
[12] = molecular target: T5, Mutated SARS-CoV-2 (COVID-19) S protein …; experiment: BLI; KD column of Table 2 repeats Table 4
[13] = molecular target: T6, Spike RBD, WT (Example 7, Tables 4 and …); experiment: BLI; KD column of Table 2 repeats Table 4

B1: Biotinylated SR4 (SR4 (5AzF) reacted with DBCO-biotin) (VHH)
VHH: QVQLVESGGGLVQAGGSLRLSCAASGFPVYSWNMWWYRQAPGKEREWVAAIESHGDSTRYADSVKGRFTISRDNAKNTVYLQMNSLKPEDTAVYYCYVWVGHTYYGQGTQVTVSA
notes: also called SR4 nanobody; biotin labeled SR4
Kd [1]: 42 nM | koff [1]: 0.00476 s⁻¹ | kon [1]: 113000 M⁻¹ s⁻¹ | Kd [2]: 30.5 nM | koff [2]: 0.0027 s⁻¹ | kon [2]: 88600 M⁻¹ s⁻¹ | Kd [3]: 57 nM | koff [3]: 0.00406 s⁻¹ | kon [3]: 70800 M⁻¹ s⁻¹ | Kd [4]: 59.3 nM | koff [4]: 0.00595 s⁻¹ | kon [4]: 100000 M⁻¹ s⁻¹ | Kd [5]: 31.8 nM | koff [5]: 0.0034 s⁻¹ | kon [5]: 107000 M⁻¹ s⁻¹ | Kd [6]: 17.9 nM | koff [6]: 0.00226 s⁻¹ | kon [6]: 126000 M⁻¹ s⁻¹ | Kd [7]: 57.4 nM | Kd [8]: 42 nM | Kd [9]: 30.5 nM | Kd [10]: 57 nM | Kd [11]: 59.3 nM | Kd [12]: 31.8 nM | Kd [13]: 17.9 nM

Reference: US20240262791A1 (University of California, published 2024)
